According to patent US20090111753A1, “Nogo-A Polypeptide Fragments, Variant Nogo Receptor-1 Polypeptides, and Uses Thereof” (Yale University, priority 2004, published 2009):

T1: AP-Nogo-66 (UniProt Q9NQC3 1055-1120)
T1 construct: domain: Nogo-66; construct described elsewhere (Fournier 2001); also called AP-Ng66; Ng66; not shown: alkaline phosphatase (AP); construct described elsewhere
T1 sequence (looked up): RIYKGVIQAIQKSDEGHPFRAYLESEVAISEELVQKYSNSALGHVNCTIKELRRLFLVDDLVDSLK

T2: AP fusion protein with the B4C fragment of Amino-Nogo-A fused directly to Nogo-66 (human, UniProt Q9NQC3 1055-1120)
T2 construct: domain: Nogo-66; also called AP-B4C66; AP-B4C-66; not shown: alkaline phosphatase (AP), vector pcAP6
T2 sequence: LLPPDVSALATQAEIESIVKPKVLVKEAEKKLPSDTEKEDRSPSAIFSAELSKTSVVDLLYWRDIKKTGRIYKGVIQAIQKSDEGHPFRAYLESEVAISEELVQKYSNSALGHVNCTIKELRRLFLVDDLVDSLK

T3: AP-fused Amino-Nogo fragment B4C (a.a. 950-1018) (human, UniProt Q9NQC3 950-1018)
T3 construct: also called AmNg B4C; AP-B4C; not shown: alkaline phosphatase (AP), vector pcAP6
T3 sequence: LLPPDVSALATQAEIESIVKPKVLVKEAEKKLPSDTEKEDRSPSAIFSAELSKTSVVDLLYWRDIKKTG


Tests used:
AP-Nogo-66 = biological target: T1, AP-Nogo-66; assay: AP-ligand binding, COS-7
[1] = biological target: T2, AP fusion protein with the B4C fragment …; assay: AP-ligand binding, COS-7
[2] = biological target: T3, AP-fused Amino-Nogo fragment B4C (a.a. …); assay: AP-ligand binding, COS-7
NgR ligands = assay: Binding of alanine substituted NgR mutants to NgR ligands, summary categories; conditions: AP-Nogo66, AP-B4C, AP-B4C66, AP-Lingo-1, AP-OMgp and AP-MAG; compared to wild type NgR
Procedure, shortened: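 Human NgR1 template; 74 mutants with 1-8 solvent-exposed charged surface residues (within 5 Å) Ala-substituted, plus glycosylation-site mutants and D259N polymorphism. Mutants tested for binding of AP-tagged Nogo66, Amino-Nogo-B4C, B4C66, MAG, OMgp and Lingo-1; each classed as losing all, keeping all, or selective ligand binding.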

| binding result (AP-Nogo-66) | binding result [1] | binding result [2] | ligand binding category of NgR mutant (Table II) (NgR ligands) | Molecule |
| --- | --- | --- | --- | --- |
| no binding | no binding | no binding | No binding | human NgR1 alanine mutant 95, 97, 188, 189, 191, 192 (receptor) CPGACVCYNEPKVTTSCPQQGLQAVPVGIPAASQRIFLHGNRISHVPAASFRACRNLTILWLHSNVLAAIAAAAFTGLALLEQLDLSDNAQLRSVDPATFHGLGRLHTLHLDRCGLQELGPGLFRGLAALQYLYLQDNALQALPDDTFRDLGNLTHLFLHGAAIAAVPERAFRGLHSLDRLLLHQNRVAHVHPHAFRDLGRLMTLYLFANNLSALPTEALAPLRALQYLRLNDNPWVCDCRARPLWAWLQKFRGSSSEVPCSLPQRLAGRDLKRLAANDLQGCAVATGPYHPIWTGRATDEEPLGLPKCCQPDAADKASVLEPGRPASAGNALKGRVPPGDSPPGNGSGPRHINDSPFGTLPGSAEPPLTAVRPEGSEPPGFPTSGPRRRPGCSRKNRTRSHCRLGQAGSGGGGTGDSEGSGALPSLTCSLTPLGLALVLWTVLGPC |
| no binding | no binding | no binding | No binding | human NgR1 alanine mutant 114, 117, 163 (receptor) CPGACVCYNEPKVTTSCPQQGLQAVPVGIPAASQRIFLHGNRISHVPAASFRACRNLTILWLHSNVLARIDAAAFTGLALLEQLDLSANAALRSVDPATFHGLGRLHTLHLDRCGLQELGPGLFRGLAALQYLYLQANALQALPDDTFRDLGNLTHLFLHGNRISSVPERAFRGLHSLDRLLLHQNRVAHVHPHAFRDLGRLMTLYLFANNLSALPTEALAPLRALQYLRLNDNPWVCDCRARPLWAWLQKFRGSSSEVPCSLPQRLAGRDLKRLAANDLQGCAVATGPYHPIWTGRATDEEPLGLPKCCQPDAADKASVLEPGRPASAGNALKGRVPPGDSPPGNGSGPRHINDSPFGTLPGSAEPPLTAVRPEGSEPPGFPTSGPRRRPGCSRKNRTRSHCRLGQAGSGGGGTGDSEGSGALPSLTCSLTPLGLALVLWTVLGPC |
| no binding | no binding | no binding | No binding | human NgR1 alanine mutant 67, 68, 95, 97 (receptor) CPGACVCYNEPKVTTSCPQQGLQAVPVGIPAASQRIFLHGAAISHVPAASFRACRNLTILWLHSNVLAAIAAAAFTGLALLEQLDLSDNAQLRSVDPATFHGLGRLHTLHLDRCGLQELGPGLFRGLAALQYLYLQDNALQALPDDTFRDLGNLTHLFLHGNRISSVPERAFRGLHSLDRLLLHQNRVAHVHPHAFRDLGRLMTLYLFANNLSALPTEALAPLRALQYLRLNDNPWVCDCRARPLWAWLQKFRGSSSEVPCSLPQRLAGRDLKRLAANDLQGCAVATGPYHPIWTGRATDEEPLGLPKCCQPDAADKASVLEPGRPASAGNALKGRVPPGDSPPGNGSGPRHINDSPFGTLPGSAEPPLTAVRPEGSEPPGFPTSGPRRRPGCSRKNRTRSHCRLGQAGSGGGGTGDSEGSGALPSLTCSLTPLGLALVLWTVLGPC |
| no binding | no binding | no binding | No binding | human NgR1 alanine mutant 210, 232, 234 (receptor) CPGACVCYNEPKVTTSCPQQGLQAVPVGIPAASQRIFLHGNRISHVPAASFRACRNLTILWLHSNVLARIDAAAFTGLALLEQLDLSDNAQLRSVDPATFHGLGRLHTLHLDRCGLQELGPGLFRGLAALQYLYLQDNALQALPDDTFRDLGNLTHLFLHGNRISSVPERAFRGLHSLDRLLLAQNRVAHVHPHAFRDLGRLMTLALAANNLSALPTEALAPLRALQYLRLNDNPWVCDCRARPLWAWLQKFRGSSSEVPCSLPQRLAGRDLKRLAANDLQGCAVATGPYHPIWTGRATDEEPLGLPKCCQPDAADKASVLEPGRPASAGNALKGRVPPGDSPPGNGSGPRHINDSPFGTLPGSAEPPLTAVRPEGSEPPGFPTSGPRRRPGCSRKNRTRSHCRLGQAGSGGGGTGDSEGSGALPSLTCSLTPLGLALVLWTVLGPC |
| no binding | no binding | no binding | No binding | human NgR1 alanine mutant 182, 186, 210 (receptor) CPGACVCYNEPKVTTSCPQQGLQAVPVGIPAASQRIFLHGNRISHVPAASFRACRNLTILWLHSNVLARIDAAAFTGLALLEQLDLSDNAQLRSVDPATFHGLGRLHTLHLDRCGLQELGPGLFRGLAALQYLYLQDNALQALPDDTFRDLGNLTALFLAGNRISSVPERAFRGLHSLDRLLLAQNRVAHVHPHAFRDLGRLMTLYLFANNLSALPTEALAPLRALQYLRLNDNPWVCDCRARPLWAWLQKFRGSSSEVPCSLPQRLAGRDLKRLAANDLQGCAVATGPYHPIWTGRATDEEPLGLPKCCQPDAADKASVLEPGRPASAGNALKGRVPPGDSPPGNGSGPRHINDSPFGTLPGSAEPPLTAVRPEGSEPPGFPTSGPRRRPGCSRKNRTRSHCRLGQAGSGGGGTGDSEGSGALPSLTCSLTPLGLALVLWTVLGPC |
| no binding | no binding | no binding | No binding | human NgR1 alanine mutant 87, 89, 133, 136 (receptor) CPGACVCYNEPKVTTSCPQQGLQAVPVGIPAASQRIFLHGNRISHVPAASFRACRNLTILALASNVLARIDAAAFTGLALLEQLDLSDNAQLRSVDPATFHGLGRLATLALDRCGLQELGPGLFRGLAALQYLYLQDNALQALPDDTFRDLGNLTHLFLHGNRISSVPERAFRGLHSLDRLLLHQNRVAHVHPHAFRDLGRLMTLYLFANNLSALPTEALAPLRALQYLRLNDNPWVCDCRARPLWAWLQKFRGSSSEVPCSLPQRLAGRDLKRLAANDLQGCAVATGPYHPIWTGRATDEEPLGLPKCCQPDAADKASVLEPGRPASAGNALKGRVPPGDSPPGNGSGPRHINDSPFGTLPGSAEPPLTAVRPEGSEPPGFPTSGPRRRPGCSRKNRTRSHCRLGQAGSGGGGTGDSEGSGALPSLTCSLTPLGLALVLWTVLGPC |
| no binding | no binding | no binding | No binding | human NgR1 alanine mutant 95, 97, 117, 119, 120, 188, 189 (receptor) CPGACVCYNEPKVTTSCPQQGLQAVPVGIPAASQRIFLHGNRISHVPAASFRACRNLTILWLHSNVLAAIAAAAFTGLALLEQLDLSDNAALAAVDPATFHGLGRLHTLHLDRCGLQELGPGLFRGLAALQYLYLQDNALQALPDDTFRDLGNLTHLFLHGAAISSVPERAFRGLHSLDRLLLHQNRVAHVHPHAFRDLGRLMTLYLFANNLSALPTEALAPLRALQYLRLNDNPWVCDCRARPLWAWLQKFRGSSSEVPCSLPQRLAGRDLKRLAANDLQGCAVATGPYHPIWTGRATDEEPLGLPKCCQPDAADKASVLEPGRPASAGNALKGRVPPGDSPPGNGSGPRHINDSPFGTLPGSAEPPLTAVRPEGSEPPGFPTSGPRRRPGCSRKNRTRSHCRLGQAGSGGGGTGDSEGSGALPSLTCSLTPLGLALVLWTVLGPC |
| no binding | no binding | no binding | No binding | human NgR1 alanine mutant 111, 113, 114 (receptor) CPGACVCYNEPKVTTSCPQQGLQAVPVGIPAASQRIFLHGNRISHVPAASFRACRNLTILWLHSNVLARIDAAAFTGLALLEQLALAANAQLRSVDPATFHGLGRLHTLHLDRCGLQELGPGLFRGLAALQYLYLQDNALQALPDDTFRDLGNLTHLFLHGNRISSVPERAFRGLHSLDRLLLHQNRVAHVHPHAFRDLGRLMTLYLFANNLSALPTEALAPLRALQYLRLNDNPWVCDCRARPLWAWLQKFRGSSSEVPCSLPQRLAGRDLKRLAANDLQGCAVATGPYHPIWTGRATDEEPLGLPKCCQPDAADKASVLEPGRPASAGNALKGRVPPGDSPPGNGSGPRHINDSPFGTLPGSAEPPLTAVRPEGSEPPGFPTSGPRRRPGCSRKNRTRSHCRLGQAGSGGGGTGDSEGSGALPSLTCSLTPLGLALVLWTVLGPC |
| no binding | no binding | no binding | No binding | human NgR1 alanine mutant 67, 68, 71 (receptor) CPGACVCYNEPKVTTSCPQQGLQAVPVGIPAASQRIFLHGAAISAVPAASFRACRNLTILWLHSNVLARIDAAAFTGLALLEQLDLSDNAQLRSVDPATFHGLGRLHTLHLDRCGLQELGPGLFRGLAALQYLYLQDNALQALPDDTFRDLGNLTHLFLHGNRISSVPERAFRGLHSLDRLLLHQNRVAHVHPHAFRDLGRLMTLYLFANNLSALPTEALAPLRALQYLRLNDNPWVCDCRARPLWAWLQKFRGSSSEVPCSLPQRLAGRDLKRLAANDLQGCAVATGPYHPIWTGRATDEEPLGLPKCCQPDAADKASVLEPGRPASAGNALKGRVPPGDSPPGNGSGPRHINDSPFGTLPGSAEPPLTAVRPEGSEPPGFPTSGPRRRPGCSRKNRTRSHCRLGQAGSGGGGTGDSEGSGALPSLTCSLTPLGLALVLWTVLGPC |
